Results taken from US20050118674A1, “Engineering of Controlled Deamidation Rates in Peptides, Proteins, and Similar Structures” (priority 2003, published 2005).

test: First-order nonenzymatic deamidation of pentapeptides in Tris buffer; format: physicochemical; conditions: pH 7.4, 37.0 ° C., 0.15 M Tris HCl; Gln pentapeptides; 52 values measured, rest derived from surface fitting
Procedure, shortened: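 Pentapeptides containing Asn or Gln in varied flanking sequences incubated at 37° C., pH 7.4, 0.15 M Tris buffer; first-order deamidation rates measured. Some Asn values estimated from remaining data; many Gln values derived from surface fitting rather than measured.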

| Substance | First-Order Deamidation Halftimes of GlyXxxGlnYyyGly |
| --- | --- |
| GlyValGlnTrpGly (GVQWG; printed: GlyValGlnTrpGly) | 12000 days |
| GlyValGlnTyrGly (GVQYG; printed: GlyValGlnTyrGly) | 9700 days |
| GlyValGlnValGly (GVQVG; printed: GlyValGlnValGly) | 5900 days |
